# Molecular target: T1, human CD38 on cells (human CD38-overexpressing Jurkat cells); CD38-expressing MM.1R, THP-1 and MM.1S target … (human, UniProt P28907 1-300)
# T1 construct: also called CD38+ cells
# Experiment: summing-up sentence of the examples (cell binding, SPR, CAR format)
row,Binder,binding result
1,"anti-CD38 scFv of SEQ ID NO:109 (scFv, One of the 12 selected scFvs; Also tested inside a CAR) scFv: EGQLLESGGGLVQPGGSLRLSCAASGFTFSSFAMSWVRQAPGKGLEWVSTISGSGGSTNYADSVKGRFTISRDNSKKTLYLQMSSLRAEDTAVFYCAKGPTSPYSYYMDVWGKGTTVTVSSGGGGSGGGGSGGGGSEIVMTQSPATLSLSPGERATLSCRASQSVSSSFLSWFQQKPGQAPRLLIYGASTRATGIPARFSGSGSGTDFTLTISSLQPEDFAVYYCQQDYNLPYTFGQGTKLEIK",binds
2,"anti-CD38 scFv of SEQ ID NO:116 (scFv, One of the 12 selected scFvs; Also tested inside a CAR) scFv: EVQLVESGGGVVRPGGSLRLSCAASGFTFDDYGMSWVRQAPGKGLEWVSGINWNGGSTDYAASVKGRFTISRDNAKNSLYLQMNSLRAEDTALYHCARVFCTNGVCYPYSYYYFMDVWGKGTTVTVSSGGGGSGGGGSGGGGSEIVMTQSPATLSVSPGERATLSCRASQSVSSNLAWYQQKPGQAPRLLTYGASTRATGIPARFSGSGSGTEFTLTISSLQSEDFAVYYCQQYNNWPYTFGQGTRLEIK",binds
3,"anti-CD38 scFv of SEQ ID NO:112 (scFv, One of the 12 selected scFvs; Also tested inside a CAR) scFv: QVQLVQSGAEVKKPGASVKVSCKASGFTFTSYGFSWVRQAPGQGLEWMGWISAYSGNTKYAQKFQGRVTMTTDTSTSTAYMELRSLRSDDTAVYYCAREGGTTGTFYYYYYMDVWGKGTTVTVSSGGGGSGGGGSGGGGSEIVLTQSPDFQSVTPKEKVTITCRASQSIGRSLHWYQQKPDQSPKLLIKYASQSFSGVPSRFSGSGSGTDFTLTINSLEAEDAATYYCLQSSSLPLTFGGGTKVEIK",binds
4,"anti-CD38 scFv of SEQ ID NO:117 (scFv, One of the 12 selected scFvs; Also tested inside a CAR) scFv: EVQLVESGGGVVRPGGSLRLSCAASGFTFDDYGMSWVRQAPGKGLEWVSGINWNGGSTGYADSVKGRFTISRDNAKNSLYLQMNSLRAEDTAFYHCAREGDGYKGTFYYYYYMDVWGKGTTVTVSSGGGGSGGGGSGGGGSDIQLTQSPSFLSASVGDRVTITCRASQGIFNYLAWYQQKPGKAPNLLIYAASNLQSGVPSRFSGSGSGTEFTLTISSLQPEDFATYYCQQLNSYPLTFGGGTKVEIK",binds
5,"anti-CD38 scFv of SEQ ID NO:108 (scFv, One of the 12 selected fully human scFvs; Also tested inside a CAR (CD8a hinge and transmembrane, OX40, CD3zeta; FLAG tag in Jurkat cells)) scFv: EVQLLESGGGLVQPGGSLRLSCAASGFTFSSYAMTWVRQAPGKGLEWVSAISPSGGSTFYADSVKGRFTISRDNSKNTLYLEMNSLRAEDTAVYYCAKDLDFYGSGSYSSWGKGTTVTVSSGGGGSGGGGSGGGGSEIVMTQSPATLSLSPGERATLSCRASQSVSNSYLSWYQQKPGQAPRLLIFGTSTRATGIPARFSGSGSGTDFTLTISSLQPEDFAVYHCQQDYKLPYTFGQGTKLEIK",binds
6,"anti-CD38 scFv of SEQ ID NO:110 (scFv, One of the 12 selected scFvs; Also tested inside a CAR) scFv: QVQLVQSGAEVKKPGASVKVSCKASGYTFNRYVISWVRQAPGQGLEWMGWIRAYNGNTNYAQKFQGRVTMTTDTSTSTAYMELRSLRSDDTAVYYCARDSTTGTTEGMDVWGKGTTVTVSSGGGGSGGGGSGGGGSEIVMTQSPATLSLSPGERATLSCRASQSVSSSYLSWYQQKPGQAPRLLIYGASTRATGIPARFSGSGSGTDFTLTISSLQPEDFAVYYCQQDYNLPLTFGGGTKVEIN",binds
7,"anti-CD38 scFv of SEQ ID NO:119 (scFv, One of the 12 selected scFvs; Also tested inside a CAR) scFv: EVQLLESGGGLVQPGGSLRLSCAASGFTFSNYDMSWVRQAPGKGLEWVSTTSASGGNTYYADSVRGRFTISRDNSKNTLYLQMNSLRAEDTAVYYCAKEGDGYNPFRDHYYYFMDVWGKGTTVTVSSGGGGSGGGGSGGGGSETVMTQSPAALSVSPGERATLSCRASQSVSSNLAWYQQKPGQAPRLLIYGASTRATGIPARFSGSGSGTEFTLTISSLQSEDFAVYYCQQYNNWPPYTFGQGTKLEIK",binds
8,"anti-CD38 scFv of SEQ ID NO:111 (scFv, One of the 12 selected scFvs; Also tested inside a CAR) scFv: EAQLLESGGDLVQPGGSLRLSCAASGFTFSSYAMSWVRQAPGKGLEWVSTISVSGDSTYYADSVKGRFTISRDNSKNTLYLQMNSLRAEDTAVYYCAKALLYQGLRMDVWGKGTTVTVSSGGGGSGGGGSGGGGSDIQMTQSPSSLSASVGDRVTITCRASQGIATWLAWYQQKPEKAPKSLIYAASSLQSGVPSRFSGSGSGTDFTLSISSLQPEDFATYYCQQYNSYPLTFGGGTKVEIK",binds
